{"source": "patent US20230331825A1", "key": {"S1 (SARS-CoV-2) [1]": {"target": "S1 (SARS-CoV-2) (UniProt P0DTC2)", "assay": "protein/peptide microarray, Anti-Hu IgG control alone, replicate 1, spot S1_0.5"}, "S1 (SARS-CoV-2) [2]": {"target": "S1 (SARS-CoV-2) (UniProt P0DTC2)", "assay": "protein/peptide microarray, Anti-Hu IgG control alone, replicate 2, spot S1_0.5"}, "S1 (SARS-CoV-2) [3]": {"target": "S1 (SARS-CoV-2) (UniProt P0DTC2)", "assay": "protein/peptide microarray, Anti-Hu IgG control alone, replicate 1, spot S1_0.17"}, "S1 (SARS-CoV-2) [4]": {"target": "S1 (SARS-CoV-2) (UniProt P0DTC2)", "assay": "protein/peptide microarray, Anti-Hu IgG control alone, replicate 2, spot S1_0.17"}, "Human IgG (human) [5]": {"target": "Human IgG (human)", "assay": "protein/peptide microarray, Anti-Hu IgG control alone, replicate 1, spot Human IgG"}, "Human IgG (human) [6]": {"target": "Human IgG (human)", "assay": "protein/peptide microarray, Anti-Hu IgG control alone, replicate 2, spot Human IgG"}, "ACE2_Fc [7]": {"target": "ACE2_Fc (UniProt Q9BYF1)", "assay": "protein/peptide microarray, Anti-Hu IgG control alone, replicate 1, spot ACE2_Fc_0.5"}, "ACE2_Fc [8]": {"target": "ACE2_Fc (UniProt Q9BYF1)", "assay": "protein/peptide microarray, Anti-Hu IgG control alone, replicate 2, spot ACE2_Fc_0.5"}, "ACE2_Fc [9]": {"target": "ACE2_Fc (UniProt Q9BYF1)", "assay": "protein/peptide microarray, Anti-Hu IgG control alone, replicate 1, spot ACE2_Fc_0.17"}, "ACE2_Fc [10]": {"target": "ACE2_Fc (UniProt Q9BYF1)", "assay": "protein/peptide microarray, Anti-Hu IgG control alone, replicate 2, spot ACE2_Fc_0.17"}, "Human IgG (human) [11]": {"target": "Human IgG (human)", "assay": "protein/peptide microarray, sample [..]00761 10 ug/mL, replicate 1, positive-control spot Human IgG (signal of the anti-human IgG detection)"}, "Human IgG (human) [12]": {"target": "Human IgG (human)", "assay": "protein/peptide microarray, sample [..]00761 10 ug/mL, replicate 2, positive-control spot Human IgG (signal of the anti-human IgG detection)"}, "ACE2_Fc [13]": {"target": "ACE2_Fc (UniProt Q9BYF1)", "assay": "protein/peptide microarray, sample [..]00761 10 ug/mL, replicate 1, positive-control spot ACE2_Fc_0.5 (signal of the anti-human IgG detection)"}, "ACE2_Fc [14]": {"target": "ACE2_Fc (UniProt Q9BYF1)", "assay": "protein/peptide microarray, sample [..]00761 10 ug/mL, replicate 2, positive-control spot ACE2_Fc_0.5 (signal of the anti-human IgG detection)"}, "ACE2_Fc [15]": {"target": "ACE2_Fc (UniProt Q9BYF1)", "assay": "protein/peptide microarray, sample [..]00761 10 ug/mL, replicate 1, positive-control spot ACE2_Fc_0.17 (signal of the anti-human IgG detection)"}, "ACE2_Fc [16]": {"target": "ACE2_Fc (UniProt Q9BYF1)", "assay": "protein/peptide microarray, sample [..]00761 10 ug/mL, replicate 2, positive-control spot ACE2_Fc_0.17 (signal of the anti-human IgG detection)"}, "[17]": {"target": "Human IgG (microarray spot)", "assay": "CDI SARS-CoV-2 protein microarray, sample [..]00316 1 ug/mL, positive-control spot Human IgG read by the anti-human IgG secondary, replicate 1"}, "[18]": {"target": "Human IgG (microarray spot)", "assay": "CDI SARS-CoV-2 protein microarray, sample [..]00316 1 ug/mL, positive-control spot Human IgG read by the anti-human IgG secondary, replicate 2"}, "[19]": {"target": "Human IgG (microarray spot)", "assay": "CDI SARS-CoV-2 protein microarray, sample [..]00347 1 ug/mL, positive-control spot Human IgG read by the anti-human IgG secondary, replicate 1"}, "[20]": {"target": "Human IgG (microarray spot)", "assay": "CDI SARS-CoV-2 protein microarray, sample [..]00347 1 ug/mL, positive-control spot Human IgG read by the anti-human IgG secondary, replicate 2"}, "[21]": {"target": "ACE2_Fc (microarray spots) (UniProt Q9BYF1)", "assay": "CDI SARS-CoV-2 protein microarray, sample [..]00316 1 ug/mL, positive-control spot ACE2_Fc_0.5 read by the anti-human IgG secondary, replicate 1"}, "[22]": {"target": "ACE2_Fc (microarray spots) (UniProt Q9BYF1)", "assay": "CDI SARS-CoV-2 protein microarray, sample [..]00316 1 ug/mL, positive-control spot ACE2_Fc_0.5 read by the anti-human IgG secondary, replicate 2"}, "[23]": {"target": "ACE2_Fc (microarray spots) (UniProt Q9BYF1)", "assay": "CDI SARS-CoV-2 protein microarray, sample [..]00347 1 ug/mL, positive-control spot ACE2_Fc_0.5 read by the anti-human IgG secondary, replicate 1"}, "[24]": {"target": "ACE2_Fc (microarray spots) (UniProt Q9BYF1)", "assay": "CDI SARS-CoV-2 protein microarray, sample [..]00347 1 ug/mL, positive-control spot ACE2_Fc_0.5 read by the anti-human IgG secondary, replicate 2"}, "[25]": {"target": "ACE2_Fc (microarray spots) (UniProt Q9BYF1)", "assay": "CDI SARS-CoV-2 protein microarray, sample [..]00316 1 ug/mL, positive-control spot ACE2_Fc_0.17 read by the anti-human IgG secondary, replicate 1"}, "[26]": {"target": "ACE2_Fc (microarray spots) (UniProt Q9BYF1)", "assay": "CDI SARS-CoV-2 protein microarray, sample [..]00316 1 ug/mL, positive-control spot ACE2_Fc_0.17 read by the anti-human IgG secondary, replicate 2"}, "[27]": {"target": "ACE2_Fc (microarray spots) (UniProt Q9BYF1)", "assay": "CDI SARS-CoV-2 protein microarray, sample [..]00347 1 ug/mL, positive-control spot ACE2_Fc_0.17 read by the anti-human IgG secondary, replicate 1"}, "[28]": {"target": "ACE2_Fc (microarray spots) (UniProt Q9BYF1)", "assay": "CDI SARS-CoV-2 protein microarray, sample [..]00347 1 ug/mL, positive-control spot ACE2_Fc_0.17 read by the anti-human IgG secondary, replicate 2"}, "[29]": {"target": "SARS-CoV-2 spike (S) protein (SARS-CoV-2) (UniProt P0DTC2)", "assay": "cell-based or functional assay"}}}
{"substance": "Anti-Hu IgG (Control) (antibody)", "values": [{"measurement": "F635", "setting": "S1 (SARS-CoV-2) [1]", "value": 1560}, {"measurement": "Z-Score", "setting": "S1 (SARS-CoV-2) [1]", "value": 0.1}, {"measurement": "F635", "setting": "S1 (SARS-CoV-2) [2]", "value": 1230}, {"measurement": "Z-Score", "setting": "S1 (SARS-CoV-2) [2]", "value": 0.06}, {"measurement": "F635", "setting": "S1 (SARS-CoV-2) [3]", "value": 1410}, {"measurement": "Z-Score", "setting": "S1 (SARS-CoV-2) [3]", "value": 0.08}, {"measurement": "F635", "setting": "S1 (SARS-CoV-2) [4]", "value": 753}, {"measurement": "Z-Score", "setting": "S1 (SARS-CoV-2) [4]", "value": -0.01}, {"measurement": "F635", "setting": "Human IgG (human) [5]", "value": 65500}, {"measurement": "Z-Score", "setting": "Human IgG (human) [5]", "value": 9.27}, {"measurement": "F635", "setting": "Human IgG (human) [6]", "value": 65500}, {"measurement": "Z-Score", "setting": "Human IgG (human) [6]", "value": 9.27}, {"measurement": "F635", "setting": "ACE2_Fc [7]", "value": 65500}, {"measurement": "Z-Score", "setting": "ACE2_Fc [7]", "value": 9.27}, {"measurement": "F635", "setting": "ACE2_Fc [8]", "value": 65500}, {"measurement": "Z-Score", "setting": "ACE2_Fc [8]", "value": 9.27}, {"measurement": "F635", "setting": "ACE2_Fc [9]", "value": 65500}, {"measurement": "Z-Score", "setting": "ACE2_Fc [9]", "value": 9.27}, {"measurement": "F635", "setting": "ACE2_Fc [10]", "value": 65500}, {"measurement": "Z-Score", "setting": "ACE2_Fc [10]", "value": 9.27}, {"measurement": "F635", "setting": "Human IgG (human) [11]", "value": 65500}, {"measurement": "Z-Score", "setting": "Human IgG (human) [11]", "value": 7.28}, {"measurement": "F635", "setting": "Human IgG (human) [12]", "value": 65500}, {"measurement": "Z-Score", "setting": "Human IgG (human) [12]", "value": 7.67}, {"measurement": "F635", "setting": "ACE2_Fc [13]", "value": 65500}, {"measurement": "Z-Score", "setting": "ACE2_Fc [13]", "value": 7.28}, {"measurement": "F635", "setting": "ACE2_Fc [14]", "value": 65500}, {"measurement": "Z-Score", "setting": "ACE2_Fc [14]", "value": 7.67}, {"measurement": "F635", "setting": "ACE2_Fc [15]", "value": 65500}, {"measurement": "Z-Score", "setting": "ACE2_Fc [15]", "value": 7.28}, {"measurement": "F635", "setting": "ACE2_Fc [16]", "value": 65500}, {"measurement": "Z-Score", "setting": "ACE2_Fc [16]", "value": 7.67}]}
{"substance": "secondary antibody (Anti-Human IgG)", "values": [{"measurement": "F532", "setting": "[17]", "value": 212}, {"measurement": "F635", "setting": "[17]", "value": 65500}, {"measurement": "Z-Score", "setting": "[17]", "value": 7.52}, {"measurement": "F532", "setting": "[18]", "value": 164}, {"measurement": "F635", "setting": "[18]", "value": 65500}, {"measurement": "Z-Score", "setting": "[18]", "value": 7.97}, {"measurement": "F532", "setting": "[19]", "value": 197}, {"measurement": "F635", "setting": "[19]", "value": 65500}, {"measurement": "Z-Score", "setting": "[19]", "value": 8.93}, {"measurement": "F532", "setting": "[20]", "value": 179}, {"measurement": "F635", "setting": "[20]", "value": 65500}, {"measurement": "Z-Score", "setting": "[20]", "value": 8.89}, {"measurement": "F532", "setting": "[21]", "value": 234}, {"measurement": "F635", "setting": "[21]", "value": 65500}, {"measurement": "Z-Score", "setting": "[21]", "value": 7.52}, {"measurement": "F532", "setting": "[22]", "value": 167}, {"measurement": "F635", "setting": "[22]", "value": 65500}, {"measurement": "Z-Score", "setting": "[22]", "value": 7.96}, {"measurement": "F532", "setting": "[23]", "value": 219}, {"measurement": "F635", "setting": "[23]", "value": 65500}, {"measurement": "Z-Score", "setting": "[23]", "value": 8.93}, {"measurement": "F532", "setting": "[24]", "value": 160}, {"measurement": "F635", "setting": "[24]", "value": 65500}, {"measurement": "Z-Score", "setting": "[24]", "value": 8.89}, {"measurement": "F532", "setting": "[25]", "value": 198}, {"measurement": "F635", "setting": "[25]", "value": 65500}, {"measurement": "Z-Score", "setting": "[25]", "value": 7.52}, {"measurement": "F532", "setting": "[26]", "value": 151}, {"measurement": "F635", "setting": "[26]", "value": 60200}, {"measurement": "Z-Score", "setting": "[26]", "value": 7.32}, {"measurement": "F532", "setting": "[27]", "value": 192}, {"measurement": "F635", "setting": "[27]", "value": 65500}, {"measurement": "Z-Score", "setting": "[27]", "value": 8.93}, {"measurement": "F532", "setting": "[28]", "value": 138}, {"measurement": "F635", "setting": "[28]", "value": 65500}, {"measurement": "Z-Score", "setting": "[28]", "value": 8.89}]}
{"substance": "REGN10933 (antibody)", "values": [{"measurement": "IC50, SARS-CoV-2 pseudovirus neutralization assay", "setting": "[29]", "value": 0.0841, "unit": "µg/mL"}]}
